The numbers were not newly measured in article PMC7156326, which cites them from elsewhere.

A word on the Kd: it is the free concentration of one partner at which half of the binding sites on the other are occupied at equilibrium, for simple one-to-one binding.

This data set concerns the target GATAD2A coiled-coil (Homo sapiens) (UniProt Q86YP4).
Chain of UniProt Q86YP4 (Q86YP4 137-178): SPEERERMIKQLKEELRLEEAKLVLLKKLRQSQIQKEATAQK

Consider MBD2 coiled-coil (from UniProt Q9UBB5), for which the Kd is 50 nM.
